The results in this text go back to patent publication US20030167486.

In this data set the target is human APP London (V717F), P05067.

B1: human BACE (protein)
chain: ETDEEPEEPGRRGSFVEMVDNLRGKSGQGYYVEMTVGSPPQTLNILVDTGSSNFAVGAAPHPFLHRYYQRQLSSTYRDLRKGVYEPYTQGKWEGELGTDLVSIPHGPNVTVRANIAAITESDKFFINGSNWEGILGLAYAEIARPDDSLEPFFDSLVKQTHVPNLFSLQLCGAGFPLNQSEVLASVGGSMIIGGIDHSLYTGSLWYTPIRREWYYEVIIVRVEINGQDLKMDCKEYNYDKSIVDSGTTNLRLPKKVFEAAVKSIKAASSTEKFPDGFWLGEQLVCWQAGTTPWNIFPVISLYLMGEVTNQSFRITILPQQYLRPVEDVATSQDDCYKFAISQSSTGTVMGAVIMEGFYVVFDRARKRIGFAVSACHVHDEFRTAAVEGPFVTLDMEDCGYNIPQTDESTLMTIAYVMAAICALFMLPLCLMVCQWRCLRCLRQQHDDFADDISLLK
With B1, the “12 kD beta-secretase fragment of APP on Western blot of brain homogenate” value is listed as “the 12 kD beta-secretase fragment of APP is strongly increased due to expression of transgenic beta-secretase”; the “sAPP alpha and sAPP beta fragments in supernatants of organotypic cerebellar slice cultures (ELISA)” value is “the over-expression of beta-secretase in APP London single transgenic mice induces a preferential cleavage of APPV717F at the beta cut as demonstrated by the lack of sAPPalpha fragment detection and the increase of sAPPbeta”.
